Experimental data taken from US20250129135A1, “Multi-Agonist and Use Thereof” (priority 2021, published 2025).
Starred links: 1 amine or outer side, 2 acyl side, 3 side chain; linkers in the order of their positions; H or OH if unused. Non-standard residues stand in square brackets, D forms with d. Groups on a side chain read outwards from the residue. No end group written: not given here. *: point of attachment. C20 diacid = O=C(O)CCCCCCCCCCCCCCCCCCC(=O)*; γGlu = O=C(O)[C@H](CCC(=O)[*:2])N[*:1]; αMeF = C[C@](N)(Cc1ccccc1)C(=O)O; AEEA = NCCOCCOCC(=O)O; Ac3c = NC1(C(=O)O)CC1; Aib = CC(C)(N)C(=O)O

T1: human GIP receptor (human, UniProt P48546 22-466)
T1 sequence (looked up): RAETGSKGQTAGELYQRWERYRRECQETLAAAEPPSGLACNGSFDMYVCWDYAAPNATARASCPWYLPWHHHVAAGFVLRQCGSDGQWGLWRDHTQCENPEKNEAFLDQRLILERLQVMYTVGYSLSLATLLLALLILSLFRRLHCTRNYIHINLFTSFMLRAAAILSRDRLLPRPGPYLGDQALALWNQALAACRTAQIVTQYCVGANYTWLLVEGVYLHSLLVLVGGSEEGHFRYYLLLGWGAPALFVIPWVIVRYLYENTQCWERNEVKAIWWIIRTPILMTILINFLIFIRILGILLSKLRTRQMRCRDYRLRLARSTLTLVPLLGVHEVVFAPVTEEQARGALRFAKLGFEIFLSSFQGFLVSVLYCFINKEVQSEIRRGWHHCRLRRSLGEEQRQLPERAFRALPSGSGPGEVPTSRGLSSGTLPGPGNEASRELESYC

B1: Compound 15 (peptide)
peptide: YXQGTXTSDYSIFLDKKAQXAFIEFLLESHPSSGAPPPS
modifications: Aib at 2; αMeF at 6; Lys 17 side chain AEEAc-AEEAc-γGlu-CO(CH2)18COOH; Aib at 20; C-terminal amide (NH2)
B2: Compound 16 (peptide)
peptide: YXQGTXTSDYSIFLDKKAQXAFIEFLLEXHPSSGAPPPS
modifications: Aib at 2; αMeF at 6; Lys 17 side chain AEEAc-AEEAc-γGlu-CO(CH2)18COOH; Aib at 20; Aib at 29; C-terminal amide (NH2)
B3: Compound 17 (peptide)
peptide: YXQGTXTSDYSIFLDKKAQXAFIEYLLETGPSSGAPPPS
modifications: Aib at 2; αMeF(2F) at 6; Lys 17 side chain AEEAc-AEEAc-γGlu-CO(CH2)18COOH; Aib at 20; C-terminal amide (NH2)
B4: Compound 18 (peptide)
peptide: YXQGTXTSDYSIFLDKKAQXAFIEYLLEXHPSSGAPPPS
modifications: Aib at 2; αMeF(2F) at 6; Lys 17 side chain AEEAc-AEEAc-γGlu-CO(CH2)18COOH; Aib at 20; Aib at 29; C-terminal amide (NH2)
B5: Compound 19 (peptide)
peptide: YXQGTXTSDYSIXLDKKAQXAFIEFLLETGPSSGAPPPS
modifications: Aib at 2; αMeF(2F) at 6; αMeL at 13; Lys 17 side chain AEEAc-AEEAc-γGlu-CO(CH2)18COOH; Aib at 20; C-terminal amide (NH2)
B6: Compound 20 (peptide)
peptide: YXQGTXTSDYSIXLDKKAQXAFIEFLLEXHPSSGAPPPS
modifications: Aib at 2; αMeF(2F) at 6; αMeL at 13; Lys 17 side chain AEEAc-AEEAc-γGlu-CO(CH2)18COOH; Aib at 20; Aib at 29; C-terminal amide (NH2)
B7: Compound 21 (peptide)
peptide: YXQGTXTSDYSIFLDKKAQXAFIEFLLEGGPSSGQPPPS
modifications: Aib at 2; αMeF(2F) at 6; Lys 17 side chain AEEAc-AEEAc-γGlu-CO(CH2)18COOH; Aib at 20; C-terminal amide (NH2)
B8: Compound 22 (peptide)
peptide: YXQGTXTSDYSIXLDKKAQXAFIEFLLEGGPSSGQPPPS
modifications: Aib at 2; αMeF(2F) at 6; αMeL at 13; Lys 17 side chain AEEAc-AEEAc-γGlu-CO(CH2)18COOH; Aib at 20; C-terminal amide (NH2)
B9: Compound 23 (peptide)
peptide: YXQGTXTSDYSIXLDKKAQXAFIEYLLETGPSSGQPPPS
modifications: Aib at 2; αMeF(2F) at 6; αMeL at 13; Lys 17 side chain AEEAc-AEEAc-γGlu-CO(CH2)18COOH; Aib at 20; C-terminal amide (NH2)
B10: Compound 1 (peptide)
peptide: YXQGTXTSDYSIXLDKKAQXAFIEYLLETGPSSGAPPXS
modifications: Aib at 2; αMeF at 6; αMeL at 13; Lys 17 side chain AEEAc-AEEAc-γGlu-CO(CH2)18COOH; Aib at 20; Ac3c at 38; C-terminal amide (NH2)
B11: Compound 25 (peptide)
peptide: YXQGTXTSDYSIXLDKKAQXAFIEFLLEGRPSSXHPPPS
modifications: Aib at 2; αMeF(2F) at 6; αMeL at 13; Lys 17 side chain AEEAc-AEEAc-γGlu-CO(CH2)18COOH; Aib at 20; Aib at 34; C-terminal amide (NH2)
B12: Compound 26 (peptide)
peptide: YXQGTXTSDYSIXLDKKAQXAFIEFLLESHPSSGAPPPS
modifications: Aib at 2; αMeF at 6; αMeL at 13; Lys 17 side chain AEEAc-AEEAc-γGlu-CO(CH2)18COOH; Aib at 20; C-terminal amide (NH2)
B13: Compound 27 (peptide)
peptide: YXQGTXTSDYSIXLDKKAQXAFIEYLLESHPSSGAPPPS
modifications: Aib at 2; αMeF at 6; αMeF at 13; Lys 17 side chain AEEAc-AEEAc-γGlu-CO(CH2)18COOH; Aib at 20; C-terminal amide (NH2)
B14: Compound 28 (peptide)
peptide: Y[Aib]QGT[αMeF]TSDYSIXLDKK([AEEA-AEEA-γGlu-C20 diacid])AQ[Aib]AFIEFLLES[Aib]PSSGAPP[Ac3c]S-NH2
modifications: not fully specified (residue 13); printed as Y-Aib-QGT-αMeF-TSDYSI-αMeF-LDKK(AEEAc-AEEAc-γGlu-CO(CH2)18COOH)AQ-Aib-AFIEFLLES-Aib-PSSGAPP-Ac3c-S-NH2
B15: Compound 29 (peptide)
peptide: YXQGTXTSDYSIFLDKKAQXAFIEYLLESXPSSGAPPXS
modifications: Aib at 2; αMeF at 6; Lys 17 side chain AEEAc-AEEAc-γGlu-CO(CH2)18COOH; Aib at 20; Aib at 30; Ac3c at 38; C-terminal amide (NH2)
B16: Compound 30 (peptide)
peptide: YXQGTXTSDYSIXLDKKAQXAFIEFLLETXPSSGAPPXS
modifications: Aib at 2; αMeF at 6; αMeL at 13; Lys 17 side chain AEEAc-AEEAc-γGlu-CO(CH2)18COOH; Aib at 20; Aib at 30; Ac3c at 38; C-terminal amide (NH2)
B17: Compound 2 (peptide)
peptide: YXQGTXTSDYSIXLDKKAQXAFIEYLLETHPSSGAPPXS
modifications: Aib at 2; αMeF at 6; αMeL at 13; Lys 17 side chain AEEAc-AEEAc-γGlu-CO(CH2)18COOH; Aib at 20; Ac3c at 38; C-terminal amide (NH2)
B18: Compound 38 (peptide)
peptide: YXQGTXTSDYSIXLDKKAQXAFIEFLLETGPSSXHPPPS
modifications: Aib at 2; αMeF(2F) at 6; αMeL at 13; Lys 17 side chain AEEAc-AEEAc-γGlu-CO(CH2)18COOH; Aib at 20; Aib at 34; C-terminal amide (NH2)

How the values were obtained:
Experiment in all cases: cell-based or functional assay
[1] = target: human GCG receptor (human, UniProt P47871 26-477)
[2] = target: human GLP-1 receptor (human, UniProt P43220 24-463)
[3] = target: T1, human GIP receptor

human GCG receptor, sequence (P47871 26-477): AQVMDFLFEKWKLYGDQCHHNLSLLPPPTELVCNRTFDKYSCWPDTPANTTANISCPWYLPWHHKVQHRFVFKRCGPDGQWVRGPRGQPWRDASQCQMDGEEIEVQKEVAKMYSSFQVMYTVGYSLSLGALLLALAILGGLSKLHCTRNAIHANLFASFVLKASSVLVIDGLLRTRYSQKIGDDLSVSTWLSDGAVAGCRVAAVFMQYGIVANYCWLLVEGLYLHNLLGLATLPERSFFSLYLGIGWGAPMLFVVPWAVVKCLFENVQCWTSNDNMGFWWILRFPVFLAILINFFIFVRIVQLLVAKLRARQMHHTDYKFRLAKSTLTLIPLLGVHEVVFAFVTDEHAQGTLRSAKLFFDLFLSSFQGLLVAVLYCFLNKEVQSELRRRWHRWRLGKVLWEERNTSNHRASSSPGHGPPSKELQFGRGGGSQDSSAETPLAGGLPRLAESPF

Row | Binder | cAMP Rel. A (%) against human GCG, human GCG R cells [1] [%] | cAMP EC50, HEK-293 cells stably overexpressing human GLP-1 R [2] [nM] | cAMP Rel. A (%) against human GLP-1 (7-37), human GLP-1 R cells [2] [%] | cAMP Rel. A (%) against human GIP, human GIP R cells [3] [%] | cAMP EC50, HEK-293 cells stably overexpressing human GCG R [1] [nM] | cAMP EC50, CHO cells stably overexpressing human GIP R [3] [nM]
1 | B1 | 41 | 0.023 | 191 | 548 | – | –
2 | B2 | 33.9 | 0.02 | 220 | 335 | – | –
3 | B3 | 163 | 0.011 | 400 | 953 | – | –
4 | B4 | 219 | 0.012 | 367 | 862 | 0.026 | 0.021
5 | B5 | 197 | 0.009 | 489 | 2260 | 0.029 | 0.008
6 | B6 | 248 | 0.01 | 440 | 3020 | – | –
7 | B7 | 228 | 0.005 | 880 | 2260 | 0.025 | 0.008
8 | B8 | 335 | – | 733 | 2590 | 0.017 | 0.007
9 | B9 | 228 | 0.005 | 880 | 2590 | 0.025 | 0.007
10 | B10 | 57.6 | – | – | 1210 | – | 0.015
11 | B11 | 168 | 0.031 | 142 | 1390 | 0.034 | 0.013
12 | B12 | 43.9 | 0.022 | 200 | 2590 | – | 0.007
13 | B13 | 96.6 | 0.016 | 275 | 787 | – | 0.023
14 | B14 | 37 | 0.024 | 183 | 1650 | 0.154 | 0.011
15 | B15 | 82.6 | 0.016 | 275 | 58.6 | 0.069 | 0.309
16 | B16 | 33 | 0.02 | 220 | 1210 | 0.173 | 0.015
17 | B17 | 24.6 | 0.026 | 169 | 724 | 0.232 | 0.025
18 | B18 | – | – | – | – | 0.068 | 0.013
